Reference: PMC7910268

Tests used:
[1] = substrate: O=CCc1ccccc1; assay: purified protein; assay type: biochemical, Sphingopyxis fribergensis; settings: NAD+ 2.5 mmol L^-1, pH 7.7, aldehyde made from styrene oxide by SOI-1CP
[2] = substrate: NC(=O)c1ccc[n+]([C@@H]2O[C@H](COP(=O)(O)OP(=O)(O)OC[C@H]3O[C@@H](n4cnc5c(N)ncnc54)[C@H](O)[C@@H]3O)[C@@H](O)[C@H]2O)c1; assay: purified protein; assay type: biochemical, Sphingopyxis fribergensis; settings: phenylacetaldehyde 0.5 mmol L^-1, pH 7.7, aldehyde made from styrene oxide by SOI-1CP, varied: cofactor

B1: FeaB-Kp5.2 (Sphingopyxis fribergensis) (protein)
chain: MATAQSYVTPLSAVSTFIGHDHGLFIDGDWRAAKGTERLDVFDPSTGEPIASVANASPDDVDHAVRAAHKAFESGVWSGIAPAERERLLLKFADLVEANAEELAQIETLNQGKSINISRFVDVGGAPAYMRYVAGLTTKITGETFDVSIGAIPGARFTASTRREPIGVVGAIAPWNFPMMIGLWKIMPALAAGCTVVLKPSEVTPLTSLRLASLAKEAGLPAGVLNVITGDGKAGKALVDHPLVAKITFTGSTATGKAIARSASDRLLRTSLELGGKNPAIFLADAPIEQAVQGAILGGFFNNGQVCAASSRLYIARAIYDPFIKALAHAVDGMTMGPGLDTAAQINPVVSLQHRAKILDHIARARQDGAQIVAGGESPDRAGYYVRPTVVVGAGAQLAISRQEVFGPLVTVTPFDDEDEAINLANDTEMGLTASLWTNDLKKTMDLVPRIKAGTVWVNCHNLIDPNMPFGGYKESGIGRDFGIHSLDGYSEVKSVCIAH
Protein B1 has a Km [1] of 22 ± 5 µM, a Vmax [1] of 14.8 µmol/min/mg and a kcat [1] of 52 s⁻¹. It also gave a Km [2] of 500 ± 300 µM, a Vmax [2] of 17.8 µmol/min/mg and a kcat [2] of 62.5 s⁻¹.
